Data on two molecules can be found in paper PMC3323041 (The Journal of Biological Chemistry, 2012).

First the molecules themselves.
B2: Mdv1(94-314) K215A/K216A, containing the NTE and coiled coil (domain or fragment, S. cerevisiae, UniProt P47025 94-314, looked up)
chain: DNKTCFRMLTYISDDLLNEIPTKEGLKSDADGKLLTEGGENENLRKNASKKETSLFQGFKSYLPIAELAIENTERLNYDTNGTSGTVGAKDVMSKTNERDEIHTELPNFQDSFLIPPGVETAAISSSYSPSALKSFSQTLVNSLEFLNIQKNSTLSEIRDIEVEVENLRQKKEKLLGKIANIEQNQLLLEDNLKQIDDRLDFLEEYGLEVIEANSDENAED

Series [1] concerns the target B2. The series can be described thus: crystal structure.
Series [2] concerns the molecule itself. The series can be described thus: crystal structure.

B1: Yeast Fis1(1-129), lacking the transmembrane segment (domain or fragment, S. cerevisiae, UniProt P40515 1-129, looked up)
chain: MTKVDFWPTLKDAYEPLYPQQLEILRQQVVSEGGPTATIQSRFNYAWGLIKSTDVNDERLGVKILTDIYKEAESRRRECLYYLTIGCYKLGEYSMAKRYVDTLFEHERNNKQVGALKSMVEDKIQKETL
For B1, in series [1], the binding result was “binds”. On to B2, for which the binding result in series [2] is given as “binds”.
